Source: paper doi:10.1101/2025.06.13.659598 (bioRxiv, 2025)

Molecular target: F-actin (rabbit skeletal muscle actin, polymerised) (rabbit, UniProt P68135 1-377)
Assay: co-sedimentation

B1: FHOD1 wild-type, full length (natural protein)
chain: MAGGEDRGDGEPVSVVTVRVQYLEDTDPFACANFPEPRRAPTCSLDGALPLGAQIPAVHRLLGAPLKLEDCALQVSPSGYYLDTELSLEEQREMLEGFYEEISKGRKPTLILRTQLSVRVNAILEKLYSSSGPELRRSLFSLKQIFQEDKDLVPEFVHSEGLSCLIRVGAAADHNYQSYILRALGQLMLFVDGMLGVVAHSDTIQWLYTLCASLSRLVVKTALKLLLVFVEYSENNAPLFIRAVNSVASTTGAPPWANLVSILEEKNGADPELLVYTVTLINKTLAALPDQDSFYDVTDALEQQGMEALVQRHLGTAGTDVDLRTQLVLYENALKLEDGDIEEAPGAGGRRERRKPSSEEGKRSRRSLEGGGCPARAPEPGPTGPASPVGPTSSTGPALLTGPASSPVGPPSGLQASVNLFPTISVAPSADTSSERSIYKARFLENVAAAETEKQVALAQGRAETLAGAMPNEAGGHPDARQLWDSPETAPAARTPQSPAPCVLLRAQRSLAPEPKEPLIPASPKAEPIWELPTRAPRLSIGDLDFSDLGEDEDQDMLNVESVEAGKDIPAPSPPLPLLSGVPPPPPLPPPPPIKGPFPPPPPLPLAAPLPHSVPDSSALPTKRKTVKLFWRELKLAGGHGVSASRFGPCATLWASLDPVSVDTARLEHLFESRAKEVLPSKKAGEGRRTMTTVLDPKRSNAINIGLTTLPPVHVIKAALLNFDEFAVSKDGIEKLLTMMPTEEERQKIEEAQLANPDIPLGPAENFLMTLASIGGLAARLQLWAFKLDYDSMEREIAEPLFDLKVGMEQLVQNATFRCILATLLAVGNFLNGSQSSGFELSYLEKVSEVKDTVRRQSLLHHLCSLVLQTRPESSDLYSEIPALTRCAKVDFEQLTENLGQLERRSRAAEESLRSLAKHELAPALRARLTHFLDQCARRVAMLRIVHRRVCNRFHAFLLYLGYTPQAAREVRIMQFCHTLREFALEYRTCRERVLQQQQKQATYRERNKTRGRMITETEKFSGVAGEAPSNPSVPVAVSSGPGRGDADSHASMKSLLTSRPEDTTHNRRSRGMVQSSSPIMPTVGPSTASPEEPPGSSLPSDTSDEIMDLLVQSVTKSSPRALAARERKRSRGNRKSLRRTLKSGLGDDLVQALGLSKGPGLEV
B1: binds.
